Experimental findings from publication PMC9475456, “DDX56 transcriptionally activates MIST1 to facilitate tumorigenesis of HCC through PTEN-AKT signaling” are described below.

The series has as its target T1, DDX56 (His-DDX56) (human, UniProt Q9NY93 1-547).
T1 sequence: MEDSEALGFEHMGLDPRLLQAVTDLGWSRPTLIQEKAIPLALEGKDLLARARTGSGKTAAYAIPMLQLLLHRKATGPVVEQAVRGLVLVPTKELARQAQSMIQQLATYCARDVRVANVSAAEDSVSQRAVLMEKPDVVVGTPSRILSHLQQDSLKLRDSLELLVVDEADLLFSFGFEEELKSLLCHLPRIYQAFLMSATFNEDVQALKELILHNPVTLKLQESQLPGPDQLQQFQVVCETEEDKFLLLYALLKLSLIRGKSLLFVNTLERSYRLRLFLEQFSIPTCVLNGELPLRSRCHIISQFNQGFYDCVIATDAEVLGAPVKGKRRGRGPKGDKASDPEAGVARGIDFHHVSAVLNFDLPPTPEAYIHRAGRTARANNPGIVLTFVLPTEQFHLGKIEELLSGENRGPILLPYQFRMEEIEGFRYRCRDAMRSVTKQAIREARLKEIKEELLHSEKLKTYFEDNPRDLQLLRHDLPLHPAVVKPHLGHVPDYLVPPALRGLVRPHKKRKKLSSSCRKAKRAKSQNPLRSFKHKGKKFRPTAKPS
The experiment in a line: EMSA; 5 mM Mg2+; poly(dI-dC); supershifted by DDX56 antibody; LightShift EMSA kit, 20 uL: 2 uL 10x binding buffer, 1 uL 50% glycerol, 1 uL 100 mM MgCl2, 1 ug/uL poly(dI-dC), 1 uL 1% NP-40, 2 ug protein; supershift at room. The note with it: protein: commercial; tags: N-terminal His; label: 5' biotin; blunt. Background: A gel shift assay detects complexes by their altered migration in electrophoresis.

B1: MIST1 promoter -160 to -117 (dsDNA)
DNA 1: GCCACCTGGTCCGGGAGCCCCAGGCGCCGGCCTCCCGCCCGCCC
DNA 2: GGGCGGGCGGGAGGCCGGCGCCTGGGGCTCCCGGACCAGGTGGC
Turning to B1, the binding result is reported as “binds”.
